# Measurements: the supplement of paper PMC7125110
# ± gives the standard error. Variants at the floor of the assay were thinned out.
# B1: glmS ribozyme (parent)
# chain: AUAAAAGCGCCAGAACUACAGAAAUGUAGUUGACGAGGAGGAGGUUUAUCGAAUUUUCGGCGGAUGCCUCCAAA
# Variants of: B1
# Assay: self-cleavage kobs at 10000 uM GlcN6P; higher = faster cleavage; RNA array
# Conditions: with glucosamine-6-phosphate
# How it was run: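 kcat and KM were obtained from weighted Michaelis–Menten fits across concentrations of kobs values. Those came from one- or two-exponential decay fits to per-tile medians normalised to baseline and to non-cleaving reference variants. The variants were barcoded ribozymes transcribed in situ by E. coli RNA polymerase on sequenced MiSeq chips and tracked through a hybridised Cy3 probe at 37 °C, with 40 μM to 10 mM glucosamine-6-phosphate in HEPES/KCl/Mg(OAc)2 buffer flowed in.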
row,Variant,self-cleavage kobs at 10000 uM GlcN6P [s⁻¹]
1,G32U U57G,5.4e-05 ± 1.4e-05
2,A15G U65C C67U,7.42e-05 ± 1.7e-05
3,U46A U47G G66C,0.000401 ± 9.3e-05
4,G59C G63C,< 1e-05
5,C58U G59C C61G G62C A64G U65A G66U,< 1e-05
6,A36C G38C A64C,< 1e-05
7,G29U G38A A42G U47G C71U,< 1e-05
8,U45G U46C U54G,0.00762 ± 0.0023
9,A64U G66C,4.03e-05 ± 1.2e-05
10,C16U G38A A52G C71G,< 1e-05
11,U49C G51U C70G,< 1e-05
12,C50G G62C C70A,0.000153 ± 4.6e-05
13,A36G G40U C68A,< 1e-05
14,A15G G29C G43U G60U,< 1e-05
15,A33C G37U C70G,< 1e-05
16,U56G A64U C70U,4.79e-05 ± 1.2e-05
17,G32C C68G C71G,0.000123 ± 2.3e-05
18,G38U A39U A42C A48U,< 1e-05
19,A15G A33C U46G,4.59e-05 ± 1.3e-05
20,G44C C50U U56A,< 1e-05
21,U49A U54C C67G,< 1e-05
22,G40C U45A U49G,5.2e-05 ± 1.9e-05
23,A42U A52G U57A G63C,< 1e-05
24,G37C U54A,4.2e-05 ± 1e-05
25,U30G U45A C71G,0.000315 ± 5.9e-05

row,Variant,self-cleavage kobs at 10000 uM GlcN6P [s⁻¹]
1,C16A G35C A64C,< 1e-05
2,U30G U55G C70G,4.53e-05 ± 1.9e-05
3,A39U A42G U46C,0.00379 ± 0.00069
4,A48G U49G,5.7e-05 ± 2.1e-05
5,A39U U55C U65C,0.00435 ± 0.00052
6,C16A C50A U65G,< 1e-05
7,U30G G62A C67A,< 1e-05
8,G59U G62A A64G,< 1e-05
9,G41A A52U,9.26e-05 ± 1.6e-05
10,G41A U45C A53U,0.000355 ± 8.4e-05
11,A15U G44U,3.08e-05 ± 1.4e-05
12,G44A U45A C58G,< 1e-05
13,C16G G29U C58A,0.000585 ± 0.00014
14,G32C G38C G60U C67G,< 1e-05
15,C16U G44A U54G,0.000358 ± 7.9e-05
16,G38U G41A U45G U56A G59U,< 1e-05
17,A39G G60A,2.33e-05 ± 1.2e-05
18,U31C G41U A53G,0.000299 ± 8.8e-05
19,A15U G29C U47G U54A,0.000122 ± 2.4e-05
20,A64G U69C,0.000688 ± 0.00018
21,C34A A64G U69C,< 1e-05
22,G35U U47A C61U,< 1e-05
23,A36G A64C U65G,< 1e-05
24,A33U G40A,4.3e-05 ± 5.8e-06
25,G60C A64G U65G,< 1e-05

row,Variant,self-cleavage kobs at 10000 uM GlcN6P [s⁻¹]
1,U49A C70A,< 1e-05
2,U31G U56C C58U,6.36e-05 ± 1.2e-05
3,G29U G40A A52C C67A,< 1e-05
4,A39U A48G G60A,< 1e-05
5,G32U G43U A53G G63U A64G G66U,< 1e-05
6,C16G G32C C70U A73C,0.000111 ± 1.7e-05
7,G29A C34G C67U,< 1e-05
8,C16G G32U C70U,0.000712 ± 0.00013
9,A52G U57G U65C,6.98e-05 ± 1.2e-05
10,A39G U57A C68U,0.000176 ± 4e-05
11,A42C U49C U57A,< 1e-05
12,G35C G37U C68G,7.56e-05 ± 2.4e-05
13,G29U U46A U54C,7.78e-05 ± 2e-05
14,G41U U57C A64C,< 1e-05
15,A42U A64C C67U,< 1e-05
16,G37C A48G G62U,< 1e-05
17,G29A C58U C70U,5.99e-05 ± 1.7e-05
18,G37C A64C C67G,< 1e-05
19,G37C U45A U54C G63C,< 1e-05
20,C16U G40C A53C C71U,0.000561 ± 0.00013
21,G32C A36U G37A C61A C67U,9.54e-05 ± 1.4e-05
22,A42C C50U C68A C70A,< 1e-05
23,A36C A48U G63A,< 1e-05
24,G51U U54C G66U,< 1e-05
25,C50U A53U G59C U65A,< 1e-05

row,Variant,self-cleavage kobs at 10000 uM GlcN6P [s⁻¹]
1,C16A G32U A33U C50G C67U,0.000275 ± 9.8e-05
2,G26U U69A,6.81e-05 ± 2.1e-05
3,G35A U54G G62C,< 1e-05
4,C50U G59C A64G C71U,< 1e-05
5,G40U G43U U54C,< 1e-05
6,A48G G62C C70G,< 1e-05
7,U31C U45A A52G C68U,0.000129 ± 3.8e-05
8,G41U C67U,2.83e-05 ± 1.1e-05
9,C50G A53U C71G,0.000148 ± 4e-05
10,A33U A53U G59U,< 1e-05
11,A36C U46A C58A,< 1e-05
12,U45C C50G U54A,< 1e-05
13,G37C G59U C61G,< 1e-05
14,A33C G35C U47A,< 1e-05
15,G29C C61G C67G,< 1e-05
16,G29C U46A,7.43e-05 ± 1.7e-05
17,C16G U47A U56A U65G,0.000338 ± 9.1e-05
18,A33U G62U C71A,< 1e-05
19,U30A U65A C71U,0.000453 ± 8.5e-05
20,A33U G35C G62U C67U,< 1e-05
21,U30A A48G C68A,< 1e-05
22,A36U U49A,8.19e-05 ± 9.1e-06
23,C16G G37C G62A,< 1e-05
24,C34G G35U G38A C50A U69G,0.000375 ± 5.4e-05
25,G32C G35A G60A,< 1e-05

row,Variant,self-cleavage kobs at 10000 uM GlcN6P [s⁻¹]
1,U54G C67U C68U,0.000147 ± 2.9e-05
2,U31A G51U C68A,< 1e-05
3,G29U G37A C71U,0.000169 ± 4e-05
4,G40C G41A C50U,< 1e-05
5,C34U U45A C61U,< 1e-05
6,C16U C50G C67U,0.000119 ± 2.9e-05
7,G51U A53U G60U C70U,< 1e-05
8,G32A A33U G37U,< 1e-05
9,G43U U65G C68U,0.0019 ± 0.00044
10,U31C U47C C70U,0.000673 ± 0.00014
11,C16A G38A A48C,< 1e-05
12,C50G U54G U65G,< 1e-05
13,A48C C71G,2.78e-05 ± 8.9e-06
14,C16A G51U U65A,< 1e-05
15,A33C G38U C68U,< 1e-05
16,G32C U54A U56G,3.42e-05 ± 1.1e-05
17,U55G G59U,4.4e-05 ± 1.1e-05
18,U31A G66C,0.000307 ± 9.3e-05
19,A52U G66C,4.08e-05 ± 1.2e-05
20,U31C G35A G40C C58U G60A,< 1e-05
21,C34U G44U U54A G63C,< 1e-05
22,U30G G37U A52U G59A,< 1e-05
23,U46G U55G G66U,0.000444 ± 0.00018
24,U45A A53G U55A U65A C67A,0.000759 ± 0.00025
25,G37C U55A,4.97e-05 ± 1e-05

row,Variant,self-cleavage kobs at 10000 uM GlcN6P [s⁻¹]
1,G37C U55G,3.62e-05 ± 8.4e-06
2,U31C C50G G63A,3.51e-05 ± 1.5e-05
3,U30A U31C A53G,0.00407 ± 0.0007
4,G32A A64U C68U,< 1e-05
5,G32U A53G C67G,0.000238 ± 3.8e-05
6,A42G C58G U69C,0.000133 ± 3.8e-05
7,G29C G32C A39G,7.25e-05 ± 1.8e-05
8,G32C A36U U69G C70A,0.000103 ± 2.4e-05
9,G21U G29C,0.00256 ± 0.0005
10,A42G U46G U56C,0.00095 ± 0.0002
11,G32C A53G C67G,3.72e-05 ± 1.3e-05
12,U55G C61A,< 1e-05
13,A42U U56C,5.38e-05 ± 1.2e-05
14,A39U G43A U47C G59A C67U,< 1e-05
15,A39G U45G C70A,0.000127 ± 4.2e-05
16,A42G U55A C68G,7.44e-05 ± 2e-05
17,G40C G59C U65G,< 1e-05
18,C16A G44A C67A,9.58e-05 ± 2.5e-05
19,A15U A39G G62A,< 1e-05
20,A15U A33C C58A C68A,< 1e-05
21,A39C U47C C70U,0.000412 ± 0.0001
22,A15U C50A G51A A53G,< 1e-05
